# Laboratory results: paper PMC9482650, “Quantitative fragmentomics allow affinity mapping of interactomes” (Nature Communications, 2022)
# T1: ARHGEF11, O15085
# T1 sequence (O15085 42-136, limits assumed, looked up): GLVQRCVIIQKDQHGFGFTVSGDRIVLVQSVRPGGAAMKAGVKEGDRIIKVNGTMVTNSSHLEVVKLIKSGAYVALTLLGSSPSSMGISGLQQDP
# T2: DFNB31_1, Q9P202
# T2 sequence (Q9P202 135-233, limits assumed, looked up): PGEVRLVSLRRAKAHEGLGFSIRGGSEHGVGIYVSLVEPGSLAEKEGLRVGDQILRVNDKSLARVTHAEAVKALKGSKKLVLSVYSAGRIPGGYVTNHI
# T3: GRIP1_7, Q9Y3R0
# T3 sequence (Q9Y3R0 999-1096, limits assumed, looked up): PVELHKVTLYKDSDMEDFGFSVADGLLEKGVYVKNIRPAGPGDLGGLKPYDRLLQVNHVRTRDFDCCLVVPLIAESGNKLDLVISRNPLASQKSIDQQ
# T4: HTRA4, P83105
# T4 sequence (P83105 378-476, limits assumed, looked up): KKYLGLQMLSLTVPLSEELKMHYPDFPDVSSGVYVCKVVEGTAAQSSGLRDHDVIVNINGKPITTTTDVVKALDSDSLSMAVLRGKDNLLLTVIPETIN
# T5: LIN7A, O14910
# T5 sequence (O14910 103-200, limits assumed, looked up): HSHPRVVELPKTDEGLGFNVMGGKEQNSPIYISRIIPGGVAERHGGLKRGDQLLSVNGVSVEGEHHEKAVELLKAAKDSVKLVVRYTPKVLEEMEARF
# T6: LNX2_2, Q8N448
# T6 sequence (Q8N448 334-432, limits assumed, looked up): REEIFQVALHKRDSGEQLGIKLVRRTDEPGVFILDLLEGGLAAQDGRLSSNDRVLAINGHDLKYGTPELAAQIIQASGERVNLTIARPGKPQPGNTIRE
# T7: MPDZ_10, O75970
# T7 sequence (O75970 1624-1722, limits assumed, looked up): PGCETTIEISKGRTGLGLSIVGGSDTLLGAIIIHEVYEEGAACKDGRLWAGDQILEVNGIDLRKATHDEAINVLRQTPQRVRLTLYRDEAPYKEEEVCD
# T8: MPP2, Q14168
# T8 sequence (Q14168 180-250, limits assumed, looked up): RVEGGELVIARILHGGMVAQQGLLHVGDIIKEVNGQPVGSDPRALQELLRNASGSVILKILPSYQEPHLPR
# T9: NHERF3_4, Q5T2W1
# T9 sequence (Q5T2W1 373-468, limits assumed, looked up): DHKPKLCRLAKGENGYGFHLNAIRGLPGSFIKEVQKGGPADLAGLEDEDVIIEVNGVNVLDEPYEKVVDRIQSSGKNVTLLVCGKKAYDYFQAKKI
# T10: PCLO, Q9Y6V0
# T10 sequence (Q9Y6V0 4491-4600, limits assumed, looked up): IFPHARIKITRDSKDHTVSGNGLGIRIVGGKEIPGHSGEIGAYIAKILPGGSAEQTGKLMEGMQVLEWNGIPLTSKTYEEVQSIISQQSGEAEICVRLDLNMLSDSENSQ
# T11: RADIL, Q96JH8
# T11 sequence (Q96JH8 971-1071, limits assumed, looked up): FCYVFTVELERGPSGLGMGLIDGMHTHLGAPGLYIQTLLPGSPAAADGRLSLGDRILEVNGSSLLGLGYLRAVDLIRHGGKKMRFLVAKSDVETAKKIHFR
# T12: TX1BP3, O14907
# T12 sequence (O14907 10-122, limits assumed, looked up): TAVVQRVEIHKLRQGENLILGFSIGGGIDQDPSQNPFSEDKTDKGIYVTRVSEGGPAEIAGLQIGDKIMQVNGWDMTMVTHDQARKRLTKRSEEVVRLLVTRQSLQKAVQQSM
# B1: DACT1, Q9NYF0 (peptide)
# chain: SGSLKLMTTV
# B2: SLC45A4, Q5BKX6 (peptide)
# chain: QGPVETESVV
# Molecular target: T1, ARHGEF11, O15085
# Assay: holdup assay
# Design: key: below the threshold = too weak to quantify, mostly under pKd 3.1 to 4
# Conditions: plain residues with an end cap or a label only (N-terminal biotin on a linker: ado-ado)
row,pKd,Binder
1,4.71,B1
2,3.99,B2

# Molecular target: T2, DFNB31_1, Q9P202
# Assay: holdup assay
# Design: key: below the threshold = too weak to quantify, mostly under pKd 3.1 to 4
# Conditions: plain residues with an end cap or a label only (N-terminal biotin on a linker: ado-ado)
row,pKd,Binder
1,3.56,B1
2,3.66,B2

# Molecular target: FRMPD2_1, Q68DX3
# Assay: holdup assay
# Design: key: below the threshold = too weak to quantify, mostly under pKd 3.1 to 4
# Conditions: plain residues with an end cap or a label only (N-terminal biotin on a linker: ado-ado)
# Sequence of FRMPD2_1, Q68DX3 (Q68DX3 770-861): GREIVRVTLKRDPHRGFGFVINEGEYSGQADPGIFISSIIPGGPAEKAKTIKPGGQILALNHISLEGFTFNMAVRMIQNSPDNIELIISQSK
row,pKd,Binder
1,below the threshold,B1
2,below the threshold,B2

# Molecular target: FRMPD2_2, Q68DX3
# Assay: holdup assay
# Design: key: below the threshold = too weak to quantify, mostly under pKd 3.1 to 4
# Conditions: plain residues with an end cap or a label only (N-terminal biotin on a linker: ado-ado)
# Sequence of FRMPD2_2, Q68DX3 (Q68DX3 944-1038): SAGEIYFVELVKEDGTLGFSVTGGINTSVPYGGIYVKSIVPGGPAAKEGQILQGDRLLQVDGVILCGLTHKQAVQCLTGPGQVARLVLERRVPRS
row,pKd,Binder
1,below the threshold,B1
2,4.19,B2

# Molecular target: GOPC, Q9HD26
# Assay: holdup assay
# Design: key: below the threshold = too weak to quantify, mostly under pKd 3.1 to 4
# Conditions: plain residues with an end cap or a label only (N-terminal biotin on a linker: ado-ado)
row,pKd,Binder
1,3.95,B1
2,3.54,B2

# Molecular target: T3, GRIP1_7, Q9Y3R0
# Assay: holdup assay
# Design: key: below the threshold = too weak to quantify, mostly under pKd 3.1 to 4
# Conditions: plain residues with an end cap or a label only (N-terminal biotin on a linker: ado-ado)
row,pKd,Binder
1,below the threshold,B1
2,below the threshold,B2

# Molecular target: T4, HTRA4, P83105
# Assay: holdup assay
# Design: key: below the threshold = too weak to quantify, mostly under pKd 3.1 to 4
# Conditions: plain residues with an end cap or a label only (N-terminal biotin on a linker: ado-ado)
row,pKd,Binder
1,4.26,B1
2,3.97,B2

# Molecular target: IL16_3, Q14005
# Assay: holdup assay
# Design: key: below the threshold = too weak to quantify, mostly under pKd 3.1 to 4
# Conditions: plain residues with an end cap or a label only (N-terminal biotin on a linker: ado-ado)
# Sequence of IL16_3, Q14005 (Q14005 1107-1207): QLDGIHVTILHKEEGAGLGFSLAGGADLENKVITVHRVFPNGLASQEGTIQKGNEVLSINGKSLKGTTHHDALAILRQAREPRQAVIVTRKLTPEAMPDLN
row,pKd,Binder
1,below the threshold,B1
2,below the threshold,B2

# Molecular target: Inadl_10, Q8NI35
# Assay: holdup assay
# Design: key: below the threshold = too weak to quantify, mostly under pKd 3.1 to 4
# Conditions: plain residues with an end cap or a label only (N-terminal biotin on a linker: ado-ado)
# Sequence of Inadl_10, Q8NI35 (Q8NI35 1673-1763): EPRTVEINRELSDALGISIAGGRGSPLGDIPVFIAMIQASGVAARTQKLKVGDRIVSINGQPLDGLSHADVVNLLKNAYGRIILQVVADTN
row,pKd,Binder
1,3.84,B1
2,below the threshold,B2

# Molecular target: Inadl_5, Q8NI35
# Assay: holdup assay
# Design: key: below the threshold = too weak to quantify, mostly under pKd 3.1 to 4
# Conditions: plain residues with an end cap or a label only (N-terminal biotin on a linker: ado-ado)
# Sequence of Inadl_5, Q8NI35 (Q8NI35 673-780): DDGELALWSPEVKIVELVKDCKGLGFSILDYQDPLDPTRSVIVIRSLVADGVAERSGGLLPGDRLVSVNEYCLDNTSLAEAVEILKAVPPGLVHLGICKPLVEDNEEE
row,pKd,Binder
1,below the threshold,B1
2,3.54,B2

# Molecular target: Inadl_9, Q8NI35
# Assay: holdup assay
# Design: key: below the threshold = too weak to quantify, mostly under pKd 3.1 to 4
# Conditions: plain residues with an end cap or a label only (N-terminal biotin on a linker: ado-ado)
# Sequence of Inadl_9, Q8NI35 (Q8NI35 1530-1615): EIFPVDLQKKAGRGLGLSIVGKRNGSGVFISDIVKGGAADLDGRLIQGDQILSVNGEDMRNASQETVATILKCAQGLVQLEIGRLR
row,pKd,Binder
1,below the threshold,B1
2,3.75,B2

# Molecular target: T5, LIN7A, O14910
# Assay: holdup assay
# Design: key: below the threshold = too weak to quantify, mostly under pKd 3.1 to 4
# Conditions: plain residues with an end cap or a label only (N-terminal biotin on a linker: ado-ado)
row,pKd,Binder
1,3.68,B1
2,below the threshold,B2

# Molecular target: LNX1_3, Q8TBB1
# Assay: holdup assay
# Design: key: below the threshold = too weak to quantify, mostly under pKd 3.1 to 4
# Conditions: plain residues with an end cap or a label only (N-terminal biotin on a linker: ado-ado)
# Sequence of LNX1_3, Q8TBB1 (Q8TBB1 500-596): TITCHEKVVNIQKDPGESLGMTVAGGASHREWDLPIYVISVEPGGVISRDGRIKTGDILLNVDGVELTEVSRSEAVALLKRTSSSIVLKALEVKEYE
row,pKd,Binder
1,below the threshold,B1
2,below the threshold,B2

# Molecular target: T6, LNX2_2, Q8N448
# Assay: holdup assay
# Design: key: below the threshold = too weak to quantify, mostly under pKd 3.1 to 4
# Conditions: plain residues with an end cap or a label only (N-terminal biotin on a linker: ado-ado)
row,pKd,Binder
1,4.63,B1
2,4.31,B2

# Molecular target: MAGI1_1, Q96QZ7
# Assay: holdup assay
# Design: key: below the threshold = too weak to quantify, mostly under pKd 3.1 to 4
# Conditions: plain residues with an end cap or a label only (N-terminal biotin on a linker: ado-ado)
# Sequence of MAGI1_1, Q96QZ7 (Q96QZ7 1-106): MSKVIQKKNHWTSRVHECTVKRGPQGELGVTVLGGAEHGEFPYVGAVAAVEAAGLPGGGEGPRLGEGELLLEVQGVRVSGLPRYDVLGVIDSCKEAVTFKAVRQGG
row,pKd,Binder
1,below the threshold,B1
2,below the threshold,B2

# Molecular target: MAGI1_2, Q96QZ7
# Assay: holdup assay
# Design: key: below the threshold = too weak to quantify, mostly under pKd 3.1 to 4
# Conditions: plain residues with an end cap or a label only (N-terminal biotin on a linker: ado-ado)
# Sequence of MAGI1_2, Q96QZ7 (Q96QZ7 456-580): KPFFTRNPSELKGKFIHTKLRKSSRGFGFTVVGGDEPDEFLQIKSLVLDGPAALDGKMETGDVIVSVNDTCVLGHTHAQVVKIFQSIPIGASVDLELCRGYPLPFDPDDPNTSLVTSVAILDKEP
row,pKd,Binder
1,5.1,B1
2,below the threshold,B2

# Molecular target: MAGI3_2, Q5TCQ9
# Assay: holdup assay
# Design: key: below the threshold = too weak to quantify, mostly under pKd 3.1 to 4
# Conditions: plain residues with an end cap or a label only (N-terminal biotin on a linker: ado-ado)
# Sequence of MAGI3_2, Q5TCQ9 (Q5TCQ9 398-503): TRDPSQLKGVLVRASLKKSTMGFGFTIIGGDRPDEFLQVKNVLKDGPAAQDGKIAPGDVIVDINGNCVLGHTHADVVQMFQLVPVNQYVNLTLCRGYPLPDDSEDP
row,pKd,Binder
1,5.21,B1
2,4.47,B2

# Molecular target: T7, MPDZ_10, O75970
# Assay: holdup assay
# Design: key: below the threshold = too weak to quantify, mostly under pKd 3.1 to 4
# Conditions: plain residues with an end cap or a label only (N-terminal biotin on a linker: ado-ado)
row,pKd,Binder
1,below the threshold,B1
2,below the threshold,B2

# Molecular target: T8, MPP2, Q14168
# Assay: holdup assay
# Design: key: below the threshold = too weak to quantify, mostly under pKd 3.1 to 4
# Conditions: plain residues with an end cap or a label only (N-terminal biotin on a linker: ado-ado)
row,pKd,Binder
1,below the threshold,B1
2,below the threshold,B2

# Molecular target: T9, NHERF3_4, Q5T2W1
# Assay: holdup assay
# Design: key: below the threshold = too weak to quantify, mostly under pKd 3.1 to 4
# Conditions: plain residues with an end cap or a label only (N-terminal biotin on a linker: ado-ado)
row,pKd,Binder
1,below the threshold,B1
2,below the threshold,B2

# Molecular target: T10, PCLO, Q9Y6V0
# Assay: holdup assay
# Design: key: below the threshold = too weak to quantify, mostly under pKd 3.1 to 4
# Conditions: plain residues with an end cap or a label only (N-terminal biotin on a linker: ado-ado)
row,pKd,Binder
1,below the threshold,B1
2,below the threshold,B2

# Molecular target: T11, RADIL, Q96JH8
# Assay: holdup assay
# Design: key: below the threshold = too weak to quantify, mostly under pKd 3.1 to 4
# Conditions: plain residues with an end cap or a label only (N-terminal biotin on a linker: ado-ado)
row,pKd,Binder
1,4.15,B1
2,4.05,B2

# Molecular target: TJP1_2, Q07157
# Assay: holdup assay
# Design: key: below the threshold = too weak to quantify, mostly under pKd 3.1 to 4
# Conditions: plain residues with an end cap or a label only (N-terminal biotin on a linker: ado-ado)
# Sequence of TJP1_2, Q07157 (Q07157 181-274): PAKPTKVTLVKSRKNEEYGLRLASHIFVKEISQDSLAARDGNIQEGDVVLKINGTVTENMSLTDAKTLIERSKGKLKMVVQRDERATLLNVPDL
row,pKd,Binder
1,below the threshold,B1
2,3.54,B2

# Molecular target: TJP2_1, Q9UDY2
# Assay: holdup assay
# Design: key: below the threshold = too weak to quantify, mostly under pKd 3.1 to 4
# Conditions: plain residues with an end cap or a label only (N-terminal biotin on a linker: ado-ado)
# Sequence of TJP2_1, Q9UDY2 (Q9UDY2 24-128): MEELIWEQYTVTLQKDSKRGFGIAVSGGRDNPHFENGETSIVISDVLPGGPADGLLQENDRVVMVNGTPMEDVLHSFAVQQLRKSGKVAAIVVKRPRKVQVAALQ
row,pKd,Binder
1,3.58,B1
2,below the threshold,B2

# Molecular target: T12, TX1BP3, O14907
# Assay: holdup assay
# Design: key: below the threshold = too weak to quantify, mostly under pKd 3.1 to 4
# Conditions: plain residues with an end cap or a label only (N-terminal biotin on a linker: ado-ado)
row,pKd,Binder
1,3.75,B1
2,3.81,B2
